Key:
[1] = molecular target: human IL-11 (human) (UniProt P20809); experiment: cell-based or functional assay
[2] = molecular target: murine IL-11 (mouse) (UniProt P47873); experiment: cell-based or functional assay
Chain of UniProt P47873 (P47873 22-199 limits assumed): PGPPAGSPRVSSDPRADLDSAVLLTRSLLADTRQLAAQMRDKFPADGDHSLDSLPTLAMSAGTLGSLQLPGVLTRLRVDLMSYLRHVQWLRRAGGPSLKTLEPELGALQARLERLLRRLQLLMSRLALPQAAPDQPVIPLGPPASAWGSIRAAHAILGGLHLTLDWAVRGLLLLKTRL

Chain of UniProt P20809 (P20809 22-199 limits assumed): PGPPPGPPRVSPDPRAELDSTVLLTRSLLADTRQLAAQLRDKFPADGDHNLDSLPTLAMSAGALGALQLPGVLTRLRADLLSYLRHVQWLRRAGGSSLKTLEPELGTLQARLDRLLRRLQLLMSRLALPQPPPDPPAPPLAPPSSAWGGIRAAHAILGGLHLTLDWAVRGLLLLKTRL

## neutralising anti-human IL-11 monoclonal antibody (Monoclonal Mouse IgG2A; Clone #22626; Catalog No. MAB218; R&D Systems, MN, USA)
[1]
  percentage of activated (αSMA-positive) human atrial fibroblasts with TGFβ1 (% activated fibroblasts): 28.3
  percentage of activated fibroblasts normalised to non-stimulated cultures (fold of non-stimulated cultures): 0.99
  percentage of activated human atrial fibroblasts with TGFβ1, against unstimulated cultures (fold of unstimulated cultures): 0.89
[2]
  percentage of activated fibroblasts normalised to non-stimulated cultures (fold of non-stimulated cultures): 1.24
  percentage of activated mouse atrial fibroblasts with TGFβ1, against unstimulated cultures (fold of unstimulated cultures): 1.44
  percentage of activated mouse dermal fibroblasts with TGFβ1 (% activated fibroblasts): 39.4
